From publication PMC7785020, “A unique hormonal recognition feature of the human glucagon-like peptide-2 receptor” (Cell Research, 2020)

What was measured:
[1] = target: Human GLP-2R WT (1–553) (human) (UniProt O95838); assay: radioligand binding; competition on transiently transfected COS-7 cells: unlabeled teduglutide 0.1 nM to 1 μM against 10–15 pM [125I]GLP-2(1–33, M10Y); 4 h, 4 °C; 50 mM HEPES pH 7.4, 1 mM CaCl2, 5 mM MgCl2, 0.5% BSA; three-parameter logistic fit
[2] = target: GLP-2R N247^ECL1A (human) (UniProt O95838); assay: as above
GLP-2R ECL1 (GLP-1R) = GLP-2R ECL1 (GLP-1R) (UniProt O95838); assay: as above
[3] = target: GLP-2R Y252^ECL1A (human) (UniProt O95838); assay: as above
[4] = target: T1, GLP-2R mutant ECL1 (poly-alanine) (Homo sapiens, UniProt O95838, D244A/DELINS236-257AAAAAAAAAAAAAAAAAAAAAA/E246A/E255A/G248A/K241A/L253A/M250A/M256A/N237A/N245A/N247A/P243A/R242A/S238A/S240A/S251A/S254A/S257A/W249A/Y236A/Y239A/Y252A); assay: radioligand competition binding, ECL1 (poly-alanine); details: COS-7, ECL1 (residues 236–257) substituted by poly-alanine; [^125I]GLP-2(1–33, M10Y) 10–15 pM, 4 h, 4 °C; mean ± SEM, n ≥ 3 in duplicate
T1 construct: WT (1–553); expressed in transfected cells; host or cells: COS-7
Experimental: A stepwise oxidation reaction was performed by addition of 6 aliquots of 5 µL ChloramineT (30 µL/mL) with a 1-min interval during constant stirring. The reaction was terminated by the addition of 400 µL phase A (0.1% trifluoracetic acid) before being fractionated into 1 mL volume by reverse-phase high-performance liquid chromatography (RP-HPLC, Waters 600 SimiPrep system) on a C18 column. The iodinated protein was […] by increasing concentrations of phase B (Acetonitrile + 0.1% TFA) and tested for competitive binding ability.
One day before transfection, the COS-7 cells were seeded in 75 cm^2 culture flasks (3 million cells/flask) in DMEM, containing 3.9 g/L NaHCO3 and supplemented with 10% FBS, 1% L-glutamine, 180 units/mL penicillin and 45 µg/mL streptomycin. […] Following 24-h incubation, the cells were transferred to Costa® microtiter plates (150,000 cells/well, PerkinElmer) to achieve a 5%–10% specific binding. Forty-eight hours after transfection, the cells were washed twice in binding buffer (50 mM HEPES, pH 7.4, supplemented with 1 mM CaCl2, 5 mM MgCl2 and 0.5% (w/v) BSA) and incubated for 15 min at 4 °C. […] The cells were then washed twice in binding buffer (4 °C), lysed and counted for radioactivity using a Wallac Gamma Counter (PerkinElmer).

GLP-2R W340^5.36A = target: T2, GLP-2R W340^5.36A (Homo sapiens, UniProt O95838, W340A); assay: cAMP accumulation, W340^5.36A; type: cell-based; design: WT (1–553); expressed in transfected cells; HEK 293T (cAMP); details: Table S3, W340A; HEK 293T, 30 min, RT; mean ± SEM, n ≥ 3 in duplicate; read-out: cAMP Emax (% WT)
T2 sequence (O95838 1-553 W340A): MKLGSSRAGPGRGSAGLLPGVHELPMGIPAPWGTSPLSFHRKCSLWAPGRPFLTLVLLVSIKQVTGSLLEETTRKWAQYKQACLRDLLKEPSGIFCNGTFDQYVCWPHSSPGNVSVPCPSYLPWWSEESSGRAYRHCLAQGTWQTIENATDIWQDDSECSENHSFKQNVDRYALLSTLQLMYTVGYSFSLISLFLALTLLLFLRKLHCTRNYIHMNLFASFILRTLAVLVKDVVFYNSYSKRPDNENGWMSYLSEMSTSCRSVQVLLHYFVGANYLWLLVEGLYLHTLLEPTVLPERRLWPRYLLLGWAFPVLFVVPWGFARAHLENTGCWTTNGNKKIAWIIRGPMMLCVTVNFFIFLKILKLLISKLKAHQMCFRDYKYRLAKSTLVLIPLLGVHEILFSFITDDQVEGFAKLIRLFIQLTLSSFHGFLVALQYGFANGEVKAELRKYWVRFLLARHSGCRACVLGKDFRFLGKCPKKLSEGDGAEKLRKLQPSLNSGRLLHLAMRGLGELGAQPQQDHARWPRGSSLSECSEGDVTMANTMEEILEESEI
Experimental: HEK 293T cells were cultured in Dulbecco’s Modified Eagle’s Medium (DMEM) (Gibco, Waltham, USA) supplemented with 10% (v/v) fetal bovine serum (FBS) (Gibco) and 1% (v/v) sodium pyruvate (Gibco) at 37 °C, 5% CO2 in a humidified incubator. They were seeded onto 6-well cell culture plates and transiently transfected with different GLP-2R constructs using Lipofectamine 2000 transfection reagent (Invitrogen, Carlsbad, CA, USA). After 24 h, the transfected cells were seeded onto 384-well microtiter plates (3000 cells per well) in HBSS supplemented with 5 mM HEPES, 0.1% (w/v) bovine serum albumin (BSA) and 0.5 mM 3-isobutyl-1- methylxanthine, and stimulated with increasing concentrations of GLP-2 for 30 min at RT. Eu and Ulight were diluted by cAMP detection buffer and added to the plates separately to terminate the reaction. Plates were incubated at RT for 60 min before measuring the fluorescence intensity at 620 nm and […] by an EnVision multilabel plate reader (PerkinElmer, Boston, USA).

% Binding of WT [1] [%]	% Binding of WT [2] [%]	% Binding of WT (GLP-2R ECL1 (GLP-1R)) [%]	% Binding of WT [3] [%]	Compound	% Binding of WT [4] [%]	Emax (GLP-2R W340^5.36A) [%]
99.7	135	1.2	6.3	[^125I]GLP-2(1–33, M10Y) (peptide)	–	–
–	–	–	–	CC[C@H](C)[C@H](NC(=O)[C@H](Cc1ccccc1)NC(=O)[C@H](CC(=O)O)NC(=O)[C@H](CCCNC(=N)N)NC(=O)[C@H](C)NC(=O)[C@H](C)NC(=O)[C@H](CC(C)C)NC(=O)[C@H](CC(N)=O)NC(=O)[C@H](CC(=O)O)NC(=O)[C@H](CC(C)C)NC(=O)[C@@H](NC(=O)[C@@H](NC(=O)[C@H](CC(N)=O)NC(=O)[C@H](CCSC)NC(=O)[C@H](CCC(=O)O)NC(=O)[C@H](CC(=O)O)NC(=O)[C@H](CO)NC(=O)[C@H](Cc1ccccc1)NC(=O)[C@H](CO)NC(=O)CNC(=O)[C@H](CC(=O)O)NC(=O)[C@H](C)NC(=O)[C@@H](N)Cc1c[nH]cn1)[C@@H](C)O)[C@@H](C)CC)C(=O)N[C@@H](CC(N)=O)C(=O)N[C@@H](Cc1c[nH]c2ccccc12)C(=O)N[C@@H](CC(C)C)C(=O)N[C@H](C(=O)N[C@@H](CCC(N)=O)C(=O)N[C@H](C(=O)N[C@@H](CCCCN)C(=O)N[C@H](C(=O)N[C@H](C(=O)N[C@@H](CC(=O)O)C(=O)O)[C@@H](C)O)[C@@H](C)CC)[C@@H](C)O)[C@@H](C)CC [Human GLP-2 (1–33)]	3.0 ± 1.1	107 ± 3.6
